Assay results taken from patent US20130317087A1 (UNIVERSITY OF ROCHESTER, published 2013).

Assays:
mRFP-SSM-‘RBD’5 = target: T1, mRFP-SSM-‘RBD’5 (human, UniProt D2GVP7 455-564 (Ailuropoda melanoleuca entry), N-terminal mRFP fusion is not carried in the letters.); experiment: anti-GFP co-IP from HEK293T lysates with RNase A, western blotting
T1 construct: Expressed in HEK293T cells; also called monomeric red fluorescence protein-SSM-‘RBD’5; product of pmRFP-hSTAU1-SSM-‘RBD’5; not shown: N-terminal mRFP (monomeric DsRed from a pDsRed-Express-C1 derivative) and the vector-encoded linker
T1 sequence: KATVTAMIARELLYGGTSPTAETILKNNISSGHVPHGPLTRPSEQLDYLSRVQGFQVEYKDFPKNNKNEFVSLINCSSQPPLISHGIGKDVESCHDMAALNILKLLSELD

cellular hUPF1 [1] = target: T2, cellular hUPF1 (human, UniProt Q92900-2 1-1118, limits assumed); experiment: co-immunoprecipitation with anti-GFP from HEK293T lysates in the presence of RNase A; western blot alpha-UPF1
T2 construct: Endogenous protein detected by western blotting
T2 sequence (looked up): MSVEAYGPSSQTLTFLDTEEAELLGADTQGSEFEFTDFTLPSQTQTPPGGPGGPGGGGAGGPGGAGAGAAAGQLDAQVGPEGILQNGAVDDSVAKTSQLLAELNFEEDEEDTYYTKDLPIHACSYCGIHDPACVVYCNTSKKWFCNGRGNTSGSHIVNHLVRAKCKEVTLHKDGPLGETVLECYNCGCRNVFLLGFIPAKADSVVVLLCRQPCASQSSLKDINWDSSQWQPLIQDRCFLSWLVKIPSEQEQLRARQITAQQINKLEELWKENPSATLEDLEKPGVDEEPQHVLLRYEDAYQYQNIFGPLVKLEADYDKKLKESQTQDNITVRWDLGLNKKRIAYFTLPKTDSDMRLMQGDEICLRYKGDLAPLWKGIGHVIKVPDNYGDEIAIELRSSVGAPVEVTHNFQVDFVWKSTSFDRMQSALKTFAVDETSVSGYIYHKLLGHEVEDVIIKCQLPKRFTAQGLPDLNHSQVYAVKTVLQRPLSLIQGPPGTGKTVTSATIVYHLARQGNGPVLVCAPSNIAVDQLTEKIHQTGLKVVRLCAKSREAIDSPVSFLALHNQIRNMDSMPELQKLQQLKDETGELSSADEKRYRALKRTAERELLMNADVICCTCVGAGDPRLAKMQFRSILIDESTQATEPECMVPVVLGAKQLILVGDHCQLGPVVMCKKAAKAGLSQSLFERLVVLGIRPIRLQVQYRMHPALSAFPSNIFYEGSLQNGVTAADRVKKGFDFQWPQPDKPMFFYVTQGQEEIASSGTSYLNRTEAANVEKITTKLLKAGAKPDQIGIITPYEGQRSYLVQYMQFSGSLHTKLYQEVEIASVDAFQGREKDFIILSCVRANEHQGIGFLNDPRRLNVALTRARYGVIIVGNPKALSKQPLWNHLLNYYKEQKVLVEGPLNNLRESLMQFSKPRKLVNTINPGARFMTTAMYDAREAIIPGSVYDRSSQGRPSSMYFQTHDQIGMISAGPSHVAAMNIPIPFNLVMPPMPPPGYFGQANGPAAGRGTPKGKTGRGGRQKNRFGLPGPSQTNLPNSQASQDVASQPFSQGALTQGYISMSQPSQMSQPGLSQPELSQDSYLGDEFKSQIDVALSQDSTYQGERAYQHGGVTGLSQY

calnexin = target: T3, calnexin (UniProt P27824 21-592); experiment: co-immunoprecipitation with anti-GFP from HEK293T lysates in the presence of RNase A; western blot alpha-Calnexin (control for IP specificity)
T3 construct: Specificity control
T3 sequence (looked up): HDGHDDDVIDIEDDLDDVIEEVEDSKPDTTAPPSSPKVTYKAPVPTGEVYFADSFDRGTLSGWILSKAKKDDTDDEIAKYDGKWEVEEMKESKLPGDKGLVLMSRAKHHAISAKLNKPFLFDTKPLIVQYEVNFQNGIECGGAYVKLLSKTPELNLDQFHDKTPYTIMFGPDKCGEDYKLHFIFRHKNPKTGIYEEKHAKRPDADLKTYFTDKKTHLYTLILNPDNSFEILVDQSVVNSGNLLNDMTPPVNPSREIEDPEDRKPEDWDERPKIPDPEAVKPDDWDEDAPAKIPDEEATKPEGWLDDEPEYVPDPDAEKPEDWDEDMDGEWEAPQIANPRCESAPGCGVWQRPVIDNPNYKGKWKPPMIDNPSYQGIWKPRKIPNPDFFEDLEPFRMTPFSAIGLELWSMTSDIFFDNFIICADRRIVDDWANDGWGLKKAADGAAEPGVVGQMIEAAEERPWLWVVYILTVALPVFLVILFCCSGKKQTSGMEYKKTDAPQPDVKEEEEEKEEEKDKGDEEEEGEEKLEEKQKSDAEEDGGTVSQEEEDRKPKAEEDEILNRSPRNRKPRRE
From the text: Western blotting (WB) using the specified antibody, where calnexinservesto control for IP specificity. Results are representative of three independently performed experiments.
Human embryonic kidney (HEK)293T cells were transiently transfected with a mixture of two plasmids: (i) pEGFP-‘RBD’5, which produces monomeric enhanced green fluorescence protein (EGFP)-‘RBD’5 and either pmRFP-SSM-‘RBD’5 or pmRFP-‘RBD’5, which produce monomeric red fluorescence protein (mRFP)—SSM-‘RBD’5 or mRFP-‘RBD’5, respectively; or (ii) pEGFP-SSM-‘RBD’5 and either pmRFP-SSM-‘RBD’5 or pmRFP-‘RBD’5 (FIG. 1D, upper). […] Cell lysates were immunoprecipitated in the presence of RNase A using anti-GFP or, to control for nonspecific immunoprecipitation (IP), mouse(m)IgG.

cellular hUPF1 [2] = target: T2, cellular hUPF1; experiment: anti-GFP co-IP from HEK293T lysates with RNase A, western blotting
mRFP-‘RBD’5 = target: T4, mRFP-‘RBD’5 (human, UniProt O95793-2 407-476); experiment: as above
T4 construct: domain: ‘RBD’5; also called monomeric red fluorescence protein-‘RBD’5; product of pmRFP-hSTAU1-‘RBD’5; not shown: N-terminal mRFP (monomeric DsRed derived from pDsRed-Express-C1) with vector linker
T4 sequence (looked up): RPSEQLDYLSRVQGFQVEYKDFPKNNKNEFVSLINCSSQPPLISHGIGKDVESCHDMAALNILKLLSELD

B1: EGFP-SSM-‘RBD’5 (other, human, UniProt O95793-2 367-476, looked up)
chain: T1 sequence
notes: range 367-476; Expressed in HEK293T cells; tested in lysates with RNase A; also called monomeric enhanced green fluorescence protein-SSM-‘RBD’5; product of pEGFP-hSTAU1-SSM-‘RBD’5; not shown: N-terminal monomeric EGFP from pEGFP-C3 (BD Biosciences Clontech) with vector linker
binding result (mRFP-SSM-‘RBD’5): binds | binding result (cellular hUPF1 [1]): no binding | binding result (calnexin): no binding

B2: EGFP-‘RBD’5 (other, human, UniProt O95793-2 407-476, looked up)
chain: T4 sequence (looked up)
notes: domain: ‘RBD’5; also called monomeric enhanced green fluorescence protein-‘RBD’5; product of pEGFP-hSTAU1-‘RBD’5; not shown: N-terminal monomeric EGFP from pEGFP-C3 with vector linker
binding result (cellular hUPF1 [2]): no binding | binding result (mRFP-‘RBD’5): no binding | binding result (calnexin): no binding
